From PMC9633773, “Discovering cell-active BCL6 inhibitors: effectively combining biochemical HTS with multiple biophysical techniques, X-ray crystallography and cell-based assays” (Scientific Reports, 2022)
Ends that are not written are not given here.

How the values were obtained:
Conditions in all cases: both partners purified
[1] = biological target: T1, BCL6 BTB domain (BCL6 5-129, tag removed by HRV-3C protease) (human, UniProt P41182 5-129); assay: fluorescence polarisation; competition: 10 nM BCOR-AF633, 3 µM BCL6 BTB, unlabelled peptide varied; 20 mM Hepes/NaOH pH 8.0, 150 mM NaCl, 0.5 mM TCEP, 0.05% Tween 20, 1-2% DMSO; 2 h at room temperature
[2] = biological target: Trx-6His-HRV3C-BCL6 (Thioredoxin-6His-tagged BCL6 BTB, uncleaved) (human, UniProt P41182 5-129); assay: fluorescence polarisation; direct binding of the BCOR-AF633 probe to BCL6 BTB, FP KD (Figure S1A)
[3] = biological target: T1, BCL6 BTB domain (BCL6 5-129, tag …); assay: as above
[4] = biological target: T2, BCL6 BTB domain (BCL6 5-129, tag removed by HRV-3C protease) (human, UniProt P41182 5-129); assay: fluorescence polarisation; competition: 10 nM BCOR-AF633, 3 µM BCL6 BTB, unlabelled peptide varied; 20 mM Hepes/NaOH pH 8.0, 150 mM NaCl, 0.5 mM TCEP, 0.05% Tween 20, 1-2% DMSO; 2 h at room temperature; remark: listed apart in the source
[5] = biological target: T2, BCL6 BTB domain (BCL6 5-129, tag …); assay: thermal shift assay; 10 µM BCL6 BTB, Sypro Orange, sodium acetate pH 6, 100 mM NaCl, 0.5 mM TCEP; 200 µM BCOR control peptide

B1: SMRT peptide (EGLVATVKEAGRSIHEIPR) (peptide)
peptide: EGLVATVKEAGRSIHEIPR
notes: also called SMRT control peptide; unlabelled SMRT peptide; source: synthetic peptide, bought: Pepceuticals Ltd
IC50 [1]: 16 ± 6 µM

B2: Alexa Fluor 633-conjugated BCOR peptide (RSEIISTAPSSWVVPGP-Cys(AF633)-amide) (peptide)
peptide: RSEIISTAPSSWVVPGPC(Alexa Fluor 633 C5 maleimide)-NH2
notes: added C-terminal cysteine that carries the dye; also called BCOR-AF633; BCOR-A633; source: synthetic peptide, bought: Cambridge Research Biochemicals
Kd [2]: 1.74 µM | Kd [3]: 1.7 ± 0.3 µM

B3: unlabelled BCOR peptide (17 residue BCOR peptide) (peptide)
chain: RSEIISTAPSSWVVPGP
modifications: Terminal capping of the unlabelled peptide is not printed. Limits come from the UniProt BCL6-interaction region 498-514, which is 17 residues and matches the printed probe RSEIISTAPSSWVVPGP without …
IC50 [4]: 13 ± 1 µM | ΔTm with 200 µM peptide [5]: 6.5 °C
